According to publication PMC1188057, “Dynamic assembly, localization and proteolysis of the Bacillus subtilis SMC complex” (BMC Cell Biology, 2005):

Key:
[1] = target: the molecule itself; assay: SEC + other: sucrose gradient centrifugation; native weight of purified SMC from sedimentation coefficient 6.6 and Stokes radius 8.5; monomers to dimer
[2] = target: the molecule itself; assay: SEC; analytical gel filtration, Superdex 200 10/300 GL; 50 mM HEPES, 300 mM NaCl, pH 8.0; proteins incubated 30 min; ScpA and ScpB alone or mixed (1:2.5, 1:0.83, 1:10), fractions on SDS-PAGE

B1: SMC protein (Bacillus subtilis), His-tagged, purified (natural protein, UniProt P51834 1-1186, looked up)
chain: MFLKRLDVIGFKSFAERISVDFVKGVTAVVGPNGSGKSNITDAIRWVLGEQSARSLRGGKMEDIIFAGSDSRKRLNLAEVTLTLDNDDHFLPIDFHEVSVTRRVYRSGESEFLINNQPCRLKDIIDLFMDSGLGKEAFSIISQGKVEEILSSKAEDRRSIFEEAAGVLKYKTRKKKAENKLFETQDNLNRVEDILHELEGQVEPLKIQASIAKDYLEKKKELEHVEIALTAYDIEELHGKWSTLKEKVQMAKEEELAESSAISAKEAKIEDTRDKIQALDESVDELQQVLLVTSEELEKLEGRKEVLKERKKNAVQNQEQLEEAIVQFQQKETVLKEELSKQEAVFETLQAEVKQLRAQVKEKQQALSLHNENVEEKIEQLKSDYFELLNSQASIRNELQLLDDQMSQSAVTLQRLADNNEKHLQERHDISARKAACETEFARIEQEIHSQVGAYRDMQTKYEQKKRQYEKNESALYQAYQYVQQARSKKDMLETMQGDFSGFYQGVKEVLKAKERLGGIRGAVLELISTEQKYETAIEIALGASAQHVVTDDEQSARKAIQYLKQNSFGRATFLPLSVIRDRQLQSRDAETAARHSSFLGVASELVTFDPAYRSVIQNLLGTVLITEDLKGANELAKLLGHRYRIVTLEGDVVNPGGSMTGGAVKKKNNSLLGRSRELEDVTKRLAEMEEKTALLEQEVKTLKHSIQDMEKKLADLRETGEGLRLKQQDVKGQLYELQVAEKNINTHLELYDQEKSALSESDEERKVRKRKLEEELSAVSEKMKQLEEDIDRLTKQKQTQSSTKESLSNELTELKIAAAKKEQACKGEEDNLARLKKELTETELALKEAKEDLSFLTSEMSSSTSGEEKLEEAAKHKLNDKTKTIELIALRRDQRIKLQHGLDTYERELKEMKRLYKQKTTLLKDEEVKLGRMEVELDNLLQYLREEYSLSFEGAKEKYQLETDPEEARKRVKLIKLAIEELGTVNLGSIDEFERVNERYKFLSEQKEDLTEAKNTLFQVIEEMDEEMTKRFNDTFVQIRSHFDQVFRSLFGGGRAELRLTDPNDLLHSGVEIIAQPPGKKLQNLNLLSGGERALTAIALLFSILKVRPVPFCVLDEVEAALDEANVFRFAQYLKKYSSDTQFIVITHRKGTMEEADVLYGVTMQESGVSKVISVKLEETKEFVQ
notes: SMC, Bacillus subtilis; monomeric size 135 kDa as printed; also called wild-type SMC; wild type SMC
- stoichiometry N [1]: 2

B2: ScpB (Bacillus subtilis), His-tagged, purified (natural protein, UniProt P35155 1-197, looked up)
chain: MGLDIVNWKAIVEALLYAAGDEGLTKKQLLTVLEIEEPELNTIMADVADEYRGDTRGIELIEYADTYMLSTKKDFAPYLKKLIEVPSKGLSQASLEVLAIVSYKQPITRAEIEEIRGVKSERILHSLVAKALLCEVGRADGPGRAILYGTTPTFLEQFGLKTLDELPPLPENAEEDVLQEEADLFFENFNQTFEDIK
notes: ScpB, Bacillus subtilis; elutes at 65 kDa in gel filtration (dimer)
- stoichiometry N [2]: 2
